B1: E3 ubiquitin-protein ligase Midline-1, residues 172 to 214; numbered along this chain, O15344 (parent)
chain: GLMCLEHEDEKVNMYCVTDDQLICALCKLVGRHRDHQVAALSE

± gives the uncertainty stated by the source.

The values below come from the Human Domainome abundance scans (Beltran et al. 2025).

The variants in the data set derive from B1. The data set is described as follows: abundance fitness (aPCA) (normalised: wild type 0, dead -1); higher = more abundant; growth selection in yeast, the domain comes from the species named. Conditions: Homo sapiens.
GLMCIEHEDEKVNMYCVTDDQLICALCKLVGRHRDHQVAALSE [L5I]: the abundance fitness is -0.435 ± 0.41.

As to GLMCFEHEDEKVNMYCVTDDQLICALCKLVGRHRDHQVAALSE [L5F], the abundance fitness was -0.13 ± 0.3.

Take GLMCKEHEDEKVNMYCVTDDQLICALCKLVGRHRDHQVAALSE [L5K]: the abundance fitness was found to be 0.142 ± 0.085.

For GLMCHEHEDEKVNMYCVTDDQLICALCKLVGRHRDHQVAALSE [L5H], the abundance fitness was -0.037 ± 0.11.

In the case of GLMCDEHEDEKVNMYCVTDDQLICALCKLVGRHRDHQVAALSE [L5D], the abundance fitness was determined as 0.039 ± 0.12.

Regarding GLMCCEHEDEKVNMYCVTDDQLICALCKLVGRHRDHQVAALSE [L5C], the abundance fitness is 0.055 ± 0.11.

Regarding GLMCLEHEDEKVNMYCVTDDQLICLLCKLVGRHRDHQVAALSE [A25L], the abundance fitness is -0.28 ± 0.064.

As for GLMCLEHEDEKVNMYCVTDDQLICDLCKLVGRHRDHQVAALSE [A25D], the abundance fitness is -0.073 ± 0.094.

For the variant GLMCLEHEDEKVNMYCVTDDQLICTLCKLVGRHRDHQVAALSE [A25T], the abundance fitness was -0.16 ± 0.13.

As for GLMCLEHEDEKVNMYCVTDDQLICQLCKLVGRHRDHQVAALSE [A25Q], the abundance fitness turned out to be 0.087 ± 0.067.

Take GLMCLESEDEKVNMYCVTDDQLICALCKLVGRHRDHQVAALSE [H7S]: the abundance fitness is -0.765 ± 0.11.

Regarding GLMCLEYEDEKVNMYCVTDDQLICALCKLVGRHRDHQVAALSE [H7Y], the abundance fitness is -0.637 ± 0.13.

With GLMCLEHEDEKVNMYCVTDDQLICALCKLVGRHRDHSVAALSE [Q37S], the abundance fitness amounted to 0.047 ± 0.063.

GLMCLEHEDEKVNMYCVTDDQLICALCKLVGRHRDHEVAALSE [Q37E]: the abundance fitness came out at 0.023 ± 0.066.

As for GLMCLEHEDEKVNMYCVTDDQLICALCKLVGRHRDHNVAALSE [Q37N], the abundance fitness is -0.184 ± 0.19.

On to GLMCLEHEDEKTNMYCVTDDQLICALCKLVGRHRDHQVAALSE [V12T], for which the abundance fitness was -0.149 ± 0.081.

As to GLMCLEHEDEKPNMYCVTDDQLICALCKLVGRHRDHQVAALSE [V12P], the abundance fitness is -0.51 ± 0.34.

Regarding GLMCLEHEDEKKNMYCVTDDQLICALCKLVGRHRDHQVAALSE [V12K], the abundance fitness came out at 0.319 ± 0.14.

As to GLMCLEHEDEKVNMYCVTDDQLICALCKLVGRHRDEQVAALSE [H36E], the abundance fitness is -0.546 ± 0.07.

Regarding GLMCLEHEDEKVNMYCVTDDQLICALCKLVGRHRDIQVAALSE [H36I], the abundance fitness was -0.488 ± 0.19.

For GLMCLEHEDEKVNMYCVTDDQLICALCKLVGRHRDPQVAALSE [H36P], the abundance fitness was -0.637 ± 0.15.

As for GLMCLEHEYEKVNMYCVTDDQLICALCKLVGRHRDHQVAALSE [D9Y], the abundance fitness was -0.113 ± 0.22.

For GLMCLEHEAEKVNMYCVTDDQLICALCKLVGRHRDHQVAALSE [D9A], the abundance fitness is -0.418 ± 0.067.

In the case of GLMCLEHENEKVNMYCVTDDQLICALCKLVGRHRDHQVAALSE [D9N], the abundance fitness came out at 0.636 ± 0.22.

Take GLMCLEHEDEKVNMYCVTDDQLICALCKLVGRHRMHQVAALSE [D35M]: the abundance fitness is -0.299 ± 0.079.

Consider GLMCLEHEDEKVNMYCVTDDQLICALCKLVGRHRLHQVAALSE [D35L], for which the abundance fitness was -0.172 ± 0.062.

As for GLMCLEHEDEKVNMYCVTDDQLICALIKLVGRHRDHQVAALSE [C27I], the abundance fitness was -0.538 ± 0.37.

Regarding GLMCLEHEDEKVNMYCVTDDQLICALAKLVGRHRDHQVAALSE [C27A], the abundance fitness was -0.757 ± 0.081.

Regarding GLMCLEHEDEKVNMYCVTDDQLICALSKLVGRHRDHQVAALSE [C27S], the abundance fitness is -0.807 ± 0.11.

For the variant GLMCLEHEDEKVNMYCVTDDQLICALDKLVGRHRDHQVAALSE [C27D], the abundance fitness was -0.328 ± 0.11.

With GLMCLEHEDEKVNMYCVTDDQLICALMKLVGRHRDHQVAALSE [C27M], the abundance fitness is -1.02 ± 0.2.

For GLMCLEHEDEKVNMYCVTGDQLICALCKLVGRHRDHQVAALSE [D19G], the abundance fitness was -0.72 ± 0.087.

For the variant GLMCLEHEDEKVNMYCVTLDQLICALCKLVGRHRDHQVAALSE [D19L], the abundance fitness was -1.04 ± 0.22.

For the variant GLMCLEHEDEKVNMYCVTCDQLICALCKLVGRHRDHQVAALSE [D19C], the abundance fitness is -0.175 ± 0.14.

On to GLMCLEHEDEKVNMYCVTFDQLICALCKLVGRHRDHQVAALSE [D19F], for which the abundance fitness was -0.218 ± 0.27.

Consider GLMCLEHEDEKVNMYCVTDDQLIQALCKLVGRHRDHQVAALSE [C24Q], for which the abundance fitness was -0.792 ± 0.15.

Consider GLMCLEHEDEKVNMYCVTDDQLIRALCKLVGRHRDHQVAALSE [C24R], for which the abundance fitness is -1.02 ± 0.1.

Consider GLMCLEHEDEKVNMYCVTDDQLIMALCKLVGRHRDHQVAALSE [C24M], for which the abundance fitness is -1.02 ± 0.39.

In the case of GLMCLEHEDEKVNMYCVTDDQLICALCKLVGRHRDHQVAALEE [S42E], the abundance fitness is 0.119 ± 0.06.

GLMCLEHEDEKVNMYCVTDDQLICALCKLVGRHRDHQVAALPE [S42P]: the abundance fitness was 0.056 ± 0.087.

For the variant GLMCLEHEDEKVNMWCVTDDQLICALCKLVGRHRDHQVAALSE [Y15W], the abundance fitness is -0.089 ± 0.095.

On to GLMCLEHEDEKVNMECVTDDQLICALCKLVGRHRDHQVAALSE [Y15E], for which the abundance fitness amounted to 0.001 ± 0.058.

For the variant GDMCLEHEDEKVNMYCVTDDQLICALCKLVGRHRDHQVAALSE [L2D], the abundance fitness turned out to be 0.674 ± 0.13.

With GFMCLEHEDEKVNMYCVTDDQLICALCKLVGRHRDHQVAALSE [L2F], the abundance fitness was -0.298 ± 0.33.

Turning to KLMCLEHEDEKVNMYCVTDDQLICALCKLVGRHRDHQVAALSE [G1K], the abundance fitness worked out at 0.061 ± 0.29.

For GLMCLEHEDEKVNMYCDTDDQLICALCKLVGRHRDHQVAALSE [V17D], the abundance fitness came out at 0.113 ± 0.067.

Regarding GLMCLEHEDEKVNMYCKTDDQLICALCKLVGRHRDHQVAALSE [V17K], the abundance fitness amounted to 0.444 ± 0.065.

As for GLMCLEHEDEKVNMYCVTDDQLICANCKLVGRHRDHQVAALSE [L26N], the abundance fitness is 0.193 ± 0.2.

With GLMCLEHEDEKVNMYCVTDDQLICATCKLVGRHRDHQVAALSE [L26T], the abundance fitness stood at 0.189 ± 0.078.

As for GLMCLEHEDEKVNMYCVTDDQLICALCKFVGRHRDHQVAALSE [L29F], the abundance fitness is -0.262 ± 0.14.

As to GLMCLEHEDEKVNMYCVTDDQLICALCKMVGRHRDHQVAALSE [L29M], the abundance fitness was determined as 0.086 ± 0.084.

Regarding GLMCLEHEDEKVNMYCVTDDQLICALCKYVGRHRDHQVAALSE [L29Y], the abundance fitness is -0.085 ± 0.21.

Take GLMPLEHEDEKVNMYCVTDDQLICALCKLVGRHRDHQVAALSE [C4P]: the abundance fitness is -1.18 ± 0.29.

For the variant GLMTLEHEDEKVNMYCVTDDQLICALCKLVGRHRDHQVAALSE [C4T], the abundance fitness is -0.078 ± 0.13.

Regarding GLMWLEHEDEKVNMYCVTDDQLICALCKLVGRHRDHQVAALSE [C4W], the abundance fitness was -0.439 ± 0.12.

With GLMVLEHEDEKVNMYCVTDDQLICALCKLVGRHRDHQVAALSE [C4V], the abundance fitness is -0.944 ± 0.14.

As to GLMCLPHEDEKVNMYCVTDDQLICALCKLVGRHRDHQVAALSE [E6P], the abundance fitness is -0.843 ± 0.17.

Take GLMCLDHEDEKVNMYCVTDDQLICALCKLVGRHRDHQVAALSE [E6D]: the abundance fitness was -0.132 ± 0.19.

In the case of GLMCLEHEDEKVNMYCVTDDQLICALCKLVWRHRDHQVAALSE [G31W], the abundance fitness was -0.803 ± 0.093.
